This is an account of results in patent US6121020, “Hepatitis C E1 and E2 polypeptides and methods of obtaining the same” (Chiron Corporation, dated 2000).

This assay concerns the target probable NS4B (27 kDa), expressed from pTM1-NS25 (hepatitis C virus, UniProt P26664). Description: co-immunoprecipitation with anti-E2 antibody from lysates of cells co-transfected with pTM1-NS25.

B1: E2 species encoded by the template terminating at amino acid 699 (other)
chain: ETHVTGGSAGHTVSGFVSLLAPGAKQNVQLINTNGSWHLNSTALNCNDSLNTGWLAGLFYHHKFNSSGCPERLASCRPLTDFDQGWGPISYANGSGPDQRPYCWHYPPKPCGIVPAKSVCGPVYCFTPSPVVVGTTDRSGAPTYSWGENDTDVFVLNNTRPPLGNWFGCTWMNSTGFTKVCGAPPCVIGGAGNNTLHCPTDCFRKHPDATYSRCGSGPWITPRCLVDYPYRLWHYPCTINYTIFKIRMYVGGVEHRLEAACNWTRGERCDLEDRDRSELSPLLLTTTQWQVLPCSFTTLPALSTGLIHLHQNIVDV
In the case of B1, the binding result was “no binding”.
